Broadly, the EC50 is the concentration giving half of the maximal effect. A low value points to greater potency.

Results on 1 molecule are retold here after patent US20190225703A1 (INNATE PHARMA, published 2019).

The target of assay [1] is T1, mouse CD73 expressed at the cell surface (mouse, UniProt Q61503 29-551).
T1 construct: whole, on cells; Recombinant cell line expressing mouse CD73; also called moCD73
T1 sequence (looked up): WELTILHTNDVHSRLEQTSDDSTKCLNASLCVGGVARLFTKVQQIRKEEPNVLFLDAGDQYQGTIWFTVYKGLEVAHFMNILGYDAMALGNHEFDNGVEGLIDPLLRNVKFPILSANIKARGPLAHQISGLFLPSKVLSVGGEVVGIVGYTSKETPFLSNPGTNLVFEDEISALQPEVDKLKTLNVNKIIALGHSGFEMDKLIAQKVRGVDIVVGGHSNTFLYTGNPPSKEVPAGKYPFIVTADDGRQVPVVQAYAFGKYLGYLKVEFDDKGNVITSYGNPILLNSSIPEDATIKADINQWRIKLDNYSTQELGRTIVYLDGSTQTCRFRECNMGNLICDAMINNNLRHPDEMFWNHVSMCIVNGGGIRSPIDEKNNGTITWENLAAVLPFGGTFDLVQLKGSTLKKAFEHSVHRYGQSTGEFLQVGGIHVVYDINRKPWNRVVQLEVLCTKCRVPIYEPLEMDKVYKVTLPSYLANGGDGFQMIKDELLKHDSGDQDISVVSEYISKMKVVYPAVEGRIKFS
Description: flow cytometry titration on a cell line expressing mouse CD73. As to the method:
(§1) 10⁵ cells resuspended in PBS/0.2% BSA/0.02% NaN3 (named “staining buffer”) are distributed into round bottom 96W-microplates. Dose-range of anti-CD73 antibodies was added to the plates and cells are incubated for 45 min at 4° C. Cells were washed three times in staining buffer by spinning plates at 400 g for 3 min at 4° C. PE-coupled goat anti-mouse or goat anti-human IgG Fc fragment secondary antibodies (Beckman Coulter) diluted in staining buffer were added to the cells and plates are incubated for 30 additional minutes at 4° C. Cells were washed three times as described above and analyzed on an Accury C6 flow cytometer equipped with an HTFC plate reader.
(§2) Median of fluorescence vs. antibodies concentration was plotted on graphs and EC50 is calculated using GraphPad Prism program.
On the technique in general: A flow cytometer gives signals particle by particle.

The target in assay [2] is T2, recombinant human CD73-His extracellular domain protein, soluble dimer (human, UniProt P21589 27-547).
T2 construct: also called huCD73 protein; human recombinant soluble dimeric CD73
T2 sequence: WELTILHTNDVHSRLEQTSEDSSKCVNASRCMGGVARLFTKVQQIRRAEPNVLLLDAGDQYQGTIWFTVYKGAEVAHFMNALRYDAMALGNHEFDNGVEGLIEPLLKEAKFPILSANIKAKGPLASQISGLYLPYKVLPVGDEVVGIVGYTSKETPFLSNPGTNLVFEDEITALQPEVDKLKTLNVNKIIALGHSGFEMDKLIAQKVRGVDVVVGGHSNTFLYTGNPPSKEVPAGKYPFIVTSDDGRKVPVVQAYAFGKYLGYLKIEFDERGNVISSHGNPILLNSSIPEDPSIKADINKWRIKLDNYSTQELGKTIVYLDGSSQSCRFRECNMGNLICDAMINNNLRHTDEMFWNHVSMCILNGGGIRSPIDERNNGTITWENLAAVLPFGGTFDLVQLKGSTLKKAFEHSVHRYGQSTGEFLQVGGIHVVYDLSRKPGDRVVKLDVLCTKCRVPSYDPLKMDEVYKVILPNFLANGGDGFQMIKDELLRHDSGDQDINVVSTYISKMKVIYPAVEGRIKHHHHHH
Description: SPR (Biacore T100, 25 °C), antibody captured on Protein-A, soluble dimeric CD73 injected 1.23 to 300 nM, 1:1 kinetic model, bivalent affinity. As for the experimental part:
SPR measurements were performed on a Biacore T100 apparatus (Biacore GE Healthcare) at 25° C. In all Biacore experiments HBS-EP+(Biacore GE Healthcare) and NaOH 10 mM served as running buffer and regeneration buffer respectively. Sensorgrams were analyzed with Biacore T100 Evaluation software. Protein-A was purchase from (GE Healthcare). Human soluble dimeric CD73 proteins were cloned, produced and purified at Innate Pharma.
Protein-A proteins were immobilized covalently to carboxyl groups in the dextran layer on a Sensor Chip CMS. The chip surface was activated with EDC/NHS (N-ethyl-N′-(3-dimethylaminopropyl) carbodiimide hydrochloride and N-hydroxysuccinimide (Biacore GE Healthcare). Protein-A was diluted to 10 μg/ml in coupling buffer (10 mM acetate, pH 5.6) and injected until the appropriate immobilization level was reached (i.e. 2000 RU). Deactivation of the remaining activated groups was performed using 100 mM ethanolamine pH 8 (Biacore GE Healthcare).
Affinity study was carried out according to a standard Capture-Kinetic protocol recommended by the manufacturer (Biacore GE Healthcare kinetic wizard). Serial dilutions of human recombinant soluble dimeric CD73 proteins, ranging from 1.23 to 300 nM were sequentially injected over the captured anti-CD73 antibodies and allowed to dissociate for 10 min before regeneration. […]
On the technique in general: SPR reads the build-up and loss of mass on a sensor chip optically.

Assay [3] has as its target T3, human CD73 (ecto-5'-nucleotidase) expressed at the cell surface (human, UniProt P21589 27-549).
T3 construct: Used for huCD73-expressing recombinant cell lines, MDA-MB-231 cells (endogenous CD73), HEK-293T cells with wild type CD73, and primary T and B cells; also called huCD73; wild type CD73
T3 sequence: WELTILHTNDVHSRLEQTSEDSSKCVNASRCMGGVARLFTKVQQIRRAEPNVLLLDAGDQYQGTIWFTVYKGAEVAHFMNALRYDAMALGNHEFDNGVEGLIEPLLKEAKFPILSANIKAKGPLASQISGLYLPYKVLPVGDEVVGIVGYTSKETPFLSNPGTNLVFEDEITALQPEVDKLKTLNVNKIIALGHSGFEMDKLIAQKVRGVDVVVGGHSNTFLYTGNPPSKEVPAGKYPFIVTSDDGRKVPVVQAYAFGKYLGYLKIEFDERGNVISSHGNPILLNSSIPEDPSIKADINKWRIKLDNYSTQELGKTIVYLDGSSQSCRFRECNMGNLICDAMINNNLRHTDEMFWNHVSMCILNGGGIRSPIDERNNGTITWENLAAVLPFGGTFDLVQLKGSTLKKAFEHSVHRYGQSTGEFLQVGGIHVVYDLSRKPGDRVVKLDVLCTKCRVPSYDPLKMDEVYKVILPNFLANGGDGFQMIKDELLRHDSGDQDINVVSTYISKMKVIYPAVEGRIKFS
Description: flow cytometry titration on human-CD73-expressing cell line. As to the method:
as §1, §2

B1: antibody 7H10 (antibody, human IgG1, V domains shown)
VH: DVQLQESGPGLVKPSQSLSLTCTVTGYSITSDYAWNWIRQFPGNKLEWMGYIIYSGSTSYNPSLNSRISITRDTSKNQFFLQLNSVTTEDTATYYCAREAYLYFDYWGQGTTLTVSS
VL: DIQMTQTTSSLSASLGDRVTISCRASQDINNYLNWYQQKPDGTVKLLIYYTSRLHSGVPSRFSGSGSGTDYSLTISNLEREDVATYFCQQGNTLPWTFGGGTKLEIK
For B1, the binding result in assay [1] was “no binding (tested: 10 µg/ml)”. Further, the Kd in assay [2] is 0.527 nM. Also, it took 0.187 µg/mL to reach a half-maximal effect in assay [3] (EC50).
